Assay results reported in patent publication US12291570B2, “Treatment of metastatic pancreatic adenocarcinoma” (BioLineRx Ltd., priority 2018, dated 2025).
Square brackets hold non-standard residues; d marks the D form. Ends that are not written are not given here. 2Nal = N[C@@H](Cc1ccc2ccccc2c1)C(=O)O; Cit = NC(=O)NCCC[C@H](N)C(=O)O

How the values were obtained:
[1] = Solubility of BL-8040 powder; format: physicochemical
[2] = test system: human keratinocytes and normal human hematopoietic cells; settings: cited from earlier work
CXCR4 = CXCR4 (Homo sapiens, UniProt P61073); settings: read-out: IC50, binds to CXCR4 with high affinity; cited from earlier work
CXCR4, sequence (P61073 whole entry, species assumed): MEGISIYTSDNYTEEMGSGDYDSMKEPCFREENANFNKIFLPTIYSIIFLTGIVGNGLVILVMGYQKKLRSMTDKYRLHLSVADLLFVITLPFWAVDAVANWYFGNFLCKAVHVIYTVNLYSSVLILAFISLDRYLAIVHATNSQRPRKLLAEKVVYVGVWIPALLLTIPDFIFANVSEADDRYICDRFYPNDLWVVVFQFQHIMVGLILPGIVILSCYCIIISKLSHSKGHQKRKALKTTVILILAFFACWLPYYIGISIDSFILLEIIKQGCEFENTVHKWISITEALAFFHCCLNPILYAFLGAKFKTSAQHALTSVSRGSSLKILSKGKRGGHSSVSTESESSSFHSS

[3] = test system: metastatic pancreatic adenocarcinoma (PDAC); settings: cited from earlier work
[4] = test system: metastatic pancreatic cancer; settings: metastatic/advanced pancreatic cancer; cited from earlier work

Substance | solubility in 0.45% Sodium Chloride (half normal saline) ([1]; 0.45% Sodium Chloride) | solubility in water ([1]; water) | effect on viability of human keratinocytes and normal human hematopoietic cells [2] | IC50 (CXCR4) [nM] | level of effector CD8 cells that express Granzyme B in the tumor microenvironment [3] | level of myeloid derived suppressor cells (MDSCs) in the tumor microenvironment [3] | increase in median survival [4] [months]
BL-8040 (RR[2Nal]CY[Cit]K[dK]PYR[Cit]CR-NH2; not fully specified (residue 1, N-terminus, bridges); cysteine pairing not given here) | freely soluble | freely soluble | did not affect the viability | 0.54 to 4.5 | increasing | decreasing | –
FOLFIRINOX | – | – | – | – | – | – | 4.3
